B1: HEEH_KT_rd6_0007 (parent)
chain: SIEEEIKKAEEAKEKGKTFIHGDFVATTEELLDELLKRLRKKL
B2: HHH_rd2_0155 (parent)
chain: PPDDERKKAEKAARSGNEEKAREILERLGYSEDEARELAKRLR

Variants of: B1
Assay: folding stability dG (cDNA display proteolysis); higher = more stable
Conditions: PBS, room temperature

Variant | folding stability dG [kcal/mol]
I2V | 1.08
I2A | 0.756
I2Q | 0.766
I2Y | 0.989
I2N | 0.583
I2S | 0.818
I2P | 0.683
I2G | 0.715
I2H | 0.643
I2R | 0.776
I2W | 1.04
I2F | 0.811
I2D | 0.705
I2L | 1.47
I2K | 0.732
I2M | 0.866
I2T | 0.763
I2E | 0.545
E5W | 2.01
E5Y | 1.56
E5A | 2.05
E5N | 1.05

Variant | folding stability dG [kcal/mol]
E5R | 1.09
E5V | 2.13
E5G | 0.897
E5D | 1.23
E5H | 1.11
E5M | 2.05
E5S | 1.31
E5I | 2.4
E5P | 0.677
E5Q | 1.61
E5T | 1.84
E5L | 2.35
E5F | 1.74
E5K | 1.06
S1T | 1.28
S1F | 1.23
S1H | 1.13
S1G | 1.11
S1E | 1.11
S1V | 1.01
S1Q | 1.07
S1N | 1.19

Variant | folding stability dG [kcal/mol]
S1D | 1.24
S1R | 1.27
S1W | 1.78
S1P | 1.01
S1K | 1.14
S1L | 1.23
S1I | 0.975
S1Y | 1.36
S1M | 1.16
S1A | 1.21
E3F | 1.23
E3G | 0.881
E3K | 1.16
E3Y | 1.28
E3N | 0.919
E3V | 1.24
E3S | 1.07
E3L | 1.52
E3T | 1.04
E3H | 1.12
E3R | 1.2
E3I | 1.36

Variant | folding stability dG [kcal/mol]
E3D | 1.01
E3M | 1.45
E3W | 1.7
E3P | 0.866
E3Q | 1.22
E3A | 1.27
E4L | 1.21
E4P | 0.777
E4W | 1.27
E4R | 1.07
E4G | 0.862
E4D | 1.27
E4C | 1.78
E4F | 1.03
E4N | 1.02
E4S | 1.12
E4A | 1.25
E4I | 1.03
E4V | 0.909
E4K | 1
E4M | 1.26
E4H | 1.06

Variant | folding stability dG [kcal/mol]
E4Q | 1.11
E4T | 0.909
E4Y | 1.06
I6S | 0.742
I6H | 0.603
I6Q | 0.793
I6D | 0.648
I6R | 0.719
I6A | 0.662
I6G | 0.684
I6N | 0.587
I6T | 0.576
I6L | 1.04
I6V | 0.729
I6K | 0.651
I6F | 0.542
I6P | 0.487
I6E | 0.593
I6M | 0.782

Variants of: B2
Assay: as above
Conditions: PBS, room temperature

Variant | folding stability dG [kcal/mol]
K40T | 1.63
K40V | 1.43
K40S | 1.97
K40Y | 1.98
K40W | 2.08
R43G | 1.48
R43Q | 1.45
R43N | 1.44
R43L | 1.87
R43A | 2.29
R43H | 1.91
R43I | 1.55
R43M | 2.09
R43P | 0.532
R43E | 0.924
R43F | 2.48
R43D | 0.613
R43V | 1.77
R43S | 1.85
R43W | 2.31

Variant | folding stability dG [kcal/mol]
R43Y | 2.39
R43T | 1.5
R43K | 1.79
L42M | 2.39
L42P | 0.434
L42F | 2.26
L42V | 0.97
L42A | 1.2
L42S | 0.87
L42T | 0.69
L42H | 0.87
L42N | 0.469
L42C | 1.56
L42D | 0.37
L42Q | 0.824
L42E | 0.286
L42I | 1.57
L42Y | 2.46
L42G | 0.615
L42W | 3.74

Variant | folding stability dG [kcal/mol]
L42K | 0.832
L42R | 0.996
R41V | 1.35
R41S | 1.43
R41T | 1.37
R41L | 2.04
R41D | 0.97
R41Q | 1.78
R41K | 1.98
R41F | 1.91
R41E | 1.05
R41Y | 1.73
R41W | 1.85
R41M | 1.86
R41G | 0.69
R41N | 1.39
R41A | 1.56
R41C | 1.92
R41I | 1.6
R41H | 1.66

— the MegaScale stability set (Tsuboyama et al. 2023)
